This note sets out measurements from PMC12104855.

The experiment addresses T1, biotin-conjugated KIFC1 (residues 1-50).
T1 sequence (peptide, biotin on the N-terminus): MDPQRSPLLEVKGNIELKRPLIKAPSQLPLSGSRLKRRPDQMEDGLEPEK
In words: BLI. On the technique in general: Biolayer interferometry detects binding as a change in optical thickness at a sensor tip.

B1: 6CD1-IMGT IgG (antibody, V domains shown)
VH: EVQLQQSGAELVKPGASVKLSCTASGFNIKDTYIHWVKQRPEQGLEWIGRIDPANGNTKYDPKFQGKATITADTSSNTAYLQLSSLTSEDTAVYYCARGYGSRSAMDYWGQGTSVTVS
VL: DIVLTQSPASLAVSLGQRATISCRASQSLFNSRTRKNYMLWYQQKPGQPPKLLIYLASNLESGVPARFSGSGSGTDFTLNIHPVEEEDAATYYCQHSRELPWTFGGGTKLEIK
What is called Kd is the free concentration of one partner at which half of the binding sites on the other are occupied at equilibrium, for simple one-to-one binding. High values mean weaker binding, low ones tighter binding. The koff is a measure of how fast the partners let go of each other. Higher therefore signals fast dissociation. What is called kon is the second-order rate constant of association. As to B1, the Kd came out at 9.31 nM, the koff was found to be 0.000682 s⁻¹ and the association rate constant (kon) turned out to be 73100 M⁻¹ s⁻¹.

B2: 6C407 IgG (antibody, V domains shown)
VH: B1 VH
VL: DIVLTQSPASLAVSLGQRATISCRASKSVSTSGYSYMLWYQQKPGQPPKLLIYLASNLESGVPARFSGSGSGTDFTLNIHPVEEEDAATYYCQHSRELPWTFGGGTKLEIK
B2: the Kd worked out at 10.6 nM.
